B1: PqsE (purified, affinity tag removed) (enzyme)
chain: MLRLSAPGQLDDDLCLLGDVQVPVFLLRLGEASWALVEGGISRDAELVWADLCRWVADPSQVHYWLITHKHYDHCGLLPYLCPRLPNVQVLASERTCQAWKSESAVRVVERLNRQLLRAEQRLPEACAWDALPVRAVADGEWLELGPRHRLQVIEAHGHSDDHVVFYDVRRRRLFCGDALGEFDEAEGVWRPLVFDDMEAYLESLERLQRLPTLLQLIPGHGGLLRGRLAADGAESAYTECLRLCRRLLWRQSMGESLDELSEELHRAWGGQSVDFLPGELHLGSMRRMLEILSRQALPLD
notes: not shown: His6, N-terminal, cleaved
B2: RhlR purified in the presence of mBTL (natural protein)
chain: MRNDGGFLLWWDGLRSEMQPIHDSQGVFAVLEKEVRRLGFDYYAYGVRHTIPFTRPKTEVHGTYPKAWLERYQMQNYGAVDPAILNGLRSSEMVVWSDSLFDQSRMLWNEARDWGLCVGATLPIRAPNNLLSVLSVARDQQNISSFEREEIRLRLRCMIELLTQKLTDLEHPMLMSNPVCLSHREREILQWTADGKSSGEIAIILSISESTVNFHHKNIQKKFDAPNKTLAAAYAAALGLI
notes: RhlR, LuxR-type transcription factor of P. aeruginosa PA14/PAO1, 241 residues; also called RhlR:mBTL; non-tagged RhlR; source: E. coli BL21 CodonPlus (DE3), purified in the presence of mBTL
B3: RhlR-ATTO488 (natural protein)
chain: MRNDGGFLLWWDGLRSEMQPIHDSQGVFAVLEKEVRRLGFDYYAYGVRHTIPFTRPKTEVHGTYPKAWLERYQMQNYGAVDPAILNGLRSSEMVVWSDSLFDQSRMLWNEARDWGLCVGATLPIRAPNNLLSVLSVARDQQNISSFEREEIRLRLRCMIELLTQKLTDLEHPMLMSNPVCLSHREREILQWTADGKSSGEIAIILSISESTVNFHHKNIQKKFDAPNKTLAAAYAAALGLI
modifications: conjugated with ATTO488-maleimid (site not stated)
notes: RhlR, LuxR-type transcription factor of P. aeruginosa PA14/PAO1, 241 residues; m4 after labelling; 'non-tagged'; holds mBTL

Columns and labels:
[1] = target: the molecule itself; experiment: SEC-MALS; Superdex 200 Increase column in SEC buffer, 40-150 µg of protein applied
PqsE-E187R = target: T1, PqsE-E187R (Pseudomonas aeruginosa, UniProt P20581, E187R); experiment: MST; PqsE diluted 1:1 from 10 µM, RhlR-ATTO488 at 20 nM; 50 mM Tris pH 8.0, 300 mM NaCl, 5% glycerol, 50 µM mBTL, 0.05% Tween; 25 °C; details: both partners purified
T1 construct: source: E. coli BL21 CodonPlus (DE3), purified; not shown: His6, N-terminal, cleaved

Row | Binder | stoichiometry N [1] | Kd (PqsE-E187R) [µM]
1 | B1 | 2 | 
2 | B2 | 2 | 
3 | B3 |  | 13.8 ± 3.9

From article PMC9715718 (Nature Communications, 2022)
